The values below come from US20120316071A1 (published 2012).

The target in assay [1] is T1, Recombinant Human DLL4 (delta-like protein 4) (human, UniProt Q9NR61 27-524).
T1 construct: Bought recombinant human DLL4 coated on the ELISA plate; also called rHuman DLL4
Kind of assay: ELISA, DLL4 coated on plate, Fab at 12.5 nM (2-fold dilution series), absorbance at 450 nm. On the technique in general: In an ELISA, binding on a coated surface is turned into a signal by an enzyme label.

Assay [2] deals with T1, Recombinant Human DLL4 (delta-like …). Nature of the assay: ELISA, DLL4 coated on plate, Fab at 50 nM (2-fold dilution series), absorbance at 450 nm.
Assay [3] shares this target. Nature of the assay: ELISA, DLL4 coated on plate, Fab at 25 nM (2-fold dilution series), absorbance at 450 nm.
The target is the same in assay [4]. Kind of assay: ELISA, DLL4 coated on plate, Fab at 100 nM (2-fold dilution series), absorbance at 450 nm.
Assay [5] addresses T2, Recombinant Human DLL4 (R&D Systems Cat#1506-D4/CF) (human, UniProt Q9NR61 27-524).
T2 construct: Bought recombinant protein; also called delta-like protein 4; Delta-like 4
Nature of the assay: ECL (Meso Scale Discovery) multispot binding assay, DLL4 immobilised, Fab at 100 nM.

B1: Fab VH5-51_IGHD5-18*01>3_IGHJ4*01 G100K/G104T G24T/S28R/G35V (KT TRV) & V3-4_IGLJ1*01 V91L/S96P S52L (Fab, V domains shown)
VH: EVQLVQSGAEVKKPGESLKISCKTSGYRFTSYWIVWVRQMPGKGLEWMGIIYPGDSDTRYSPSFQGQVTISADKSISTAYLQWSSLKASDTAMYYCARRKYSYTYDYFDYWGQGTLVTVSS
VL: QTVVTQEPSFSVSPGGTVTLTCGLSSGSVSTSYYPSWYQQTPGQAPRTLIYLTNTRSSGVPDRFSGSILGNKAALTITGAQADDESDYYCLLYMGPGISYVFGTGTKVTVL
notes: Fab; Expressed in E. coli with CH1 (plasmid A, His6 and Flag tags) and lambda CL (plasmid E); also called H:KT TRV & L:LP S52L
For the molecule B1, the ELISA signal in assay [1] is 0.43; in assay [2], 0.78; in assay [3] it was 0.58; in assay [4], 1.02.

B2: Fab VH5-51_IGHD5-18*01>3_IGHJ4*01 G100K/G104T (H:KT) & V3-4_IGLJ1*01 S30A (Fab, V domains shown)
VH: EVQLVQSGAEVKKPGESLKISCKGSGYSFTSYWIGWVRQMPGKGLEWMGIIYPGDSDTRYSPSFQGQVTISADKSISTAYLQWSSLKASDTAMYYCARRKYSYTYDYFDYWGQGTLVTVSS
VL: QTVVTQEPSFSVSPGGTVTLTCGLSSGSVATSYYPSWYQQTPGQAPRTLIYSTNTRSSGVPDRFSGSILGNKAALTITGAQADDESDYYCVLYMGSGISYVFGTGTKVTVL
notes: Fab expressed in E. coli; Plasmid A adds CH1 with His6 and Flag tags to the heavy chain; Plasmid E adds lambda CL to the light chain; also called G100K/G104T & S30A
As for B2, the “ECL signal” value in assay [5] turned out to be 10300.

B3: Fab VH5-51_IGHD5-18*01>3_IGHJ4*01 G100K/G104T G24L/S28R/G35V (KT LRV) & V3-4_IGLJ1*01 V91L/S96P S52T (Fab, V domains shown)
VH: EVQLVQSGAEVKKPGESLKISCKTSGYRFTSYWIVWVRQMPGKGLEWMGIIYPGDSDTRYSPSFQGQVTISADKSISTAYLQWSSLKASDTAMYYCARRKYSYTYDYFDYWGQGTLVTVSS
VL: QTVVTQEPSFSVSPGGTVTLTCGLSSGSVSTSYYPSWYQQTPGQAPRTLIYTTNTRSSGVPDRFSGSILGNKAALTITGAQADDESDYYCLLYMGPGISYVFGTGTKVTVL
notes: Fab; Expressed in E. coli with CH1 (plasmid A, His6 and Flag tags) and lambda CL (plasmid E); also called G100K/G104T G24L/S28R/G35V & V91L/S96P S52T
Take B3: the ELISA signal amounted to 0.41 in assay [1], 0.79 in assay [2], 0.62 in assay [3] and 0.99 in assay [4].

B4: Fab VH5-51_IGHD5-18*01>3_IGHJ4*01 G100K/G104T (H:KT) & V3-4_IGLJ1*01 S26A (Fab, V domains shown)
VH: EVQLVQSGAEVKKPGESLKISCKGSGYSFTSYWIGWVRQMPGKGLEWMGIIYPGDSDTRYSPSFQGQVTISADKSISTAYLQWSSLKASDTAMYYCARRKYSYTYDYFDYWGQGTLVTVSS
VL: QTVVTQEPSFSVSPGGTVTLTCGLSAGSVSTSYYPSWYQQTPGQAPRTLIYSTNTRSSGVPDRFSGSILGNKAALTITGAQADDESDYYCVLYMGSGISYVFGTGTKVTVL
notes: Fab expressed in E. coli; Plasmid A adds CH1 with His6 and Flag tags to the heavy chain; Plasmid E adds lambda CL to the light chain; also called G100K/G104T & S26A
Turning to B4, the “ECL signal” value in assay [5] amounted to 11700.

B5: Fab VH5-51_IGHD5-18*01>3_IGHJ4*01 G100K/G104T G24T/S28R/G35V (KT TRV) & V3-4_IGLJ1*01 V91L/S96P (LP) (Fab, V domains shown)
VH: EVQLVQSGAEVKKPGESLKISCKTSGYRFTSYWIVWVRQMPGKGLEWMGIIYPGDSDTRYSPSFQGQVTISADKSISTAYLQWSSLKASDTAMYYCARRKYSYTYDYFDYWGQGTLVTVSS
VL: QTVVTQEPSFSVSPGGTVTLTCGLSSGSVSTSYYPSWYQQTPGQAPRTLIYSTNTRSSGVPDRFSGSILGNKAALTITGAQADDESDYYCLLYMGPGISYVFGTGTKVTVL
notes: Fab; Expressed in E. coli with CH1 (plasmid A, His6 and Flag tags) and lambda CL (plasmid E); also called H:KT TRV & L:LP
As for B5, the ELISA signal in assay [1] is 0.45; in assay [2], 0.81; in assay [3] it was 0.58; in assay [4], 1.

B6: Fab VH5-51_IGHD5-18*01>3_IGHJ4*01 G100K/G104T (H:KT) & V3-4_IGLJ1*01 G27A (Fab, V domains shown)
VH: EVQLVQSGAEVKKPGESLKISCKGSGYSFTSYWIGWVRQMPGKGLEWMGIIYPGDSDTRYSPSFQGQVTISADKSISTAYLQWSSLKASDTAMYYCARRKYSYTYDYFDYWGQGTLVTVSS
VL: QTVVTQEPSFSVSPGGTVTLTCGLSSASVSTSYYPSWYQQTPGQAPRTLIYSTNTRSSGVPDRFSGSILGNKAALTITGAQADDESDYYCVLYMGSGISYVFGTGTKVTVL
notes: Fab expressed in E. coli; Plasmid A adds CH1 with His6 and Flag tags to the heavy chain; Plasmid E adds lambda CL to the light chain; also called G100K/G104T & G27A
As for B6, the “ECL signal” value in assay [5] was determined as 10700.

B7: Fab VH5-51_IGHD5-18*01>3_IGHJ4*01 G100K/G104T (H:KT) & V3-4_IGLJ1*01 S25A (Fab, V domains shown)
VH: EVQLVQSGAEVKKPGESLKISCKGSGYSFTSYWIGWVRQMPGKGLEWMGIIYPGDSDTRYSPSFQGQVTISADKSISTAYLQWSSLKASDTAMYYCARRKYSYTYDYFDYWGQGTLVTVSS
VL: QTVVTQEPSFSVSPGGTVTLTCGLASGSVSTSYYPSWYQQTPGQAPRTLIYSTNTRSSGVPDRFSGSILGNKAALTITGAQADDESDYYCVLYMGSGISYVFGTGTKVTVL
notes: Fab expressed in E. coli; Plasmid A adds CH1 with His6 and Flag tags to the heavy chain; Plasmid E adds lambda CL to the light chain; also called G100K/G104T & S25A
For B7, the “ECL signal” value in assay [5] was 10200.

B8: Fab VH5-51_IGHD5-18*01>3_IGHJ4*01 G100K/G104T G24T/S28R/G35V (KT TRV) & V3-4_IGLJ1*01 V91L/S96P S52Y (Fab, V domains shown)
VH: EVQLVQSGAEVKKPGESLKISCKTSGYRFTSYWIVWVRQMPGKGLEWMGIIYPGDSDTRYSPSFQGQVTISADKSISTAYLQWSSLKASDTAMYYCARRKYSYTYDYFDYWGQGTLVTVSS
VL: QTVVTQEPSFSVSPGGTVTLTCGLSSGSVSTSYYPSWYQQTPGQAPRTLIYYTNTRSSGVPDRFSGSILGNKAALTITGAQADDESDYYCLLYMGPGISYVFGTGTKVTVL
notes: Fab; Expressed in E. coli with CH1 (plasmid A, His6 and Flag tags) and lambda CL (plasmid E); also called H:KT TRV & L:LP S52Y
Regarding B8, the ELISA signal was 0.41 in assay [1], 0.72 in assay [2], 0.56 in assay [3] and 0.9 in assay [4].

B9: Fab VH5-51_IGHD5-18*01>3_IGHJ4*01 G100K/G104T (H:KT) & V3-4_IGLJ1*01 L24A (Fab, V domains shown)
VH: EVQLVQSGAEVKKPGESLKISCKGSGYSFTSYWIGWVRQMPGKGLEWMGIIYPGDSDTRYSPSFQGQVTISADKSISTAYLQWSSLKASDTAMYYCARRKYSYTYDYFDYWGQGTLVTVSS
VL: QTVVTQEPSFSVSPGGTVTLTCGASSGSVSTSYYPSWYQQTPGQAPRTLIYSTNTRSSGVPDRFSGSILGNKAALTITGAQADDESDYYCVLYMGSGISYVFGTGTKVTVL
notes: Fab expressed in E. coli; Plasmid A adds CH1 with His6 and Flag tags to the heavy chain; Plasmid E adds lambda CL to the light chain; also called G100K/G104T & L24A
For B9, the “ECL signal” value in assay [5] is 9630.
